The values below come from patent US20200325214A1 (NUMAB THERAPEUTICS, published 2020).

Test [1] concerns the target T1, human serum albumin (human, UniProt P02768 25-609).
T1 construct: Amine-coupled to the SPR chip; also called HSA; human SA
The experiment in a line: SPR (MASS-1), SA amine-coupled, scFv analyte, pH 5.5.
Experimental: (§1) Affinity of the humanized scFvs to serum albumin (SA) of the different species was determined by SPR measurements using a MASS-1 device (Sierra Sensors). SA was directly coupled to a high capacity amine sensor chip (Sierra Sensors) using amine coupling chemistry. […] The assay was run twice at different pH values: once in a 1×PBS-Tween buffer at pH 5.5 and another time in a 1×PBS-Tween buffer at pH 7.4.

Test [2] addresses T2, cynomolgus serum albumin (cynomolgus, UniProt A2V9Z4 25-608).
T2 construct: Amine-coupled to the SPR chip; also called cynomolgus SA
The test is described as above.
Experimental: as §1

The target in test [3] is T3, marmoset (purified) serum albumin (marmoset).
T3 construct: Amine-coupled to the SPR chip; also called marmoset SA
Described as above.
Experimental: as §1

Test [4] deals with T4, rat serum albumin (rat, UniProt P02770 25-608).
T4 construct: Amine-coupled to the SPR chip; also called rat SA; rodent SA
The description is as above.
Experimental: as §1

The target in test [5] is T5, mouse serum albumin (mouse, UniProt P07724 25-608).
T5 construct: Amine-coupled to the SPR chip; also called mouse SA; rodent SA
The test is described as above.
Experimental: as §1

Test [6] addresses T1, human serum albumin. The experiment in a line: SPR; species not given, human SA taken from Table 3. A general note: SPR reads the build-up and loss of mass on a sensor chip optically.
The target in test [7] is T4, rat serum albumin. Put plainly: SPR (MASS-1), SA amine-coupled, scFv analyte, pH 7.4.
Experimental: as §1
In test [8] the target is T5, mouse serum albumin. Described as above.
Experimental: as §1
For test [9], the target named is T1, human serum albumin. The test is described as above.
Experimental: as §1
The target in test [10] is T2, cynomolgus serum albumin. The description is as above.
Experimental: as §1
For test [11], the target named is T4, rat serum albumin. The experiment in a line: SPR, SA coupled to the chip, scFv as analyte.
Experimental: as §1
Test [12] has as its target T5, mouse serum albumin. Put plainly: SPR, SA coupled to the chip, scFv as analyte.
Experimental: as §1
Test [13] addresses T1, human serum albumin. The experiment in a line: SPR; lower end tied to human SA at pH 5.5 by the KD values of Table 3.
Experimental: as §1
Test [14] deals with T2, cynomolgus serum albumin. The experiment in a line: SPR; upper end tied to cynomolgus SA at pH 5.5 by the KD values of Table 3.
Experimental: as §1

B1: 23-13-A01-sc02 (scFv, V domains shown)
VH: EVQLVESGGGLVQPGGSLRLSCAASGFSFSSSYWICWVRQAPGKGLEWVGCVFTGDGTTYYASWAKGRFTISRDNSKNTVYLQMNSLRAEDTATYFCARPVSVYYYGMDLWGQGTLVTVSS
VL: DVVMTQSPSSLSASVGDRVTITCQASQIISSRSAWYQQKPGQPPKLLIYQASKLASGVPSRFSGSGSGTDFTLTISSLQPEDFATYYCQCTYIDSNFGAFGGGTKLTVLG
notes: also called clone 23-13-A01 STR graft; humanized scFv
In general, Kd refers to the equilibrium constant for the complex coming apart. One may read the koff as a measure of how fast the partners let go of each other. Higher therefore signals a short-lived complex. As a reminder, the kon is the second-order rate constant of association. Low readings indicate slow association, high ones fast association. As for B1, the Kd in the test with human serum albumin [1] is 0.373 nM; with cynomolgus serum albumin [2] it was 0.75 nM; in test [3], 3.77 nM; with rat serum albumin [4], 18.7 nM; in the test with mouse serum albumin [5], 4.86 nM; in the test with rat serum albumin [7], 231 nM. Also, the Kd with mouse serum albumin [8] stood at 32.2 nM; with human serum albumin [9] it was 0.6 nM; with cynomolgus serum albumin [10], 1.3 nM. In addition, the koff with human serum albumin [1] was 0.000115 s⁻¹; with cynomolgus serum albumin [2] it was 0.000253 s⁻¹; in test [3] it was 0.00128 s⁻¹; with rat serum albumin [4] it was 0.00437 s⁻¹; with mouse serum albumin [5], 0.000933 s⁻¹; with rat serum albumin [7], 0.0245 s⁻¹. The figures for the koff in the test with mouse serum albumin [8], with human serum albumin [9] and in the test with cynomolgus serum albumin [10] were 0.00469 s⁻¹, 0.000194 s⁻¹ and 0.000433 s⁻¹, respectively. Moreover, the kon was determined as 307000 M⁻¹ s⁻¹ with human serum albumin [1]; 338000 M⁻¹ s⁻¹ in the test with cynomolgus serum albumin [2]; 338000 M⁻¹ s⁻¹ in test [3]; 234000 M⁻¹ s⁻¹ with rat serum albumin [4]; 192000 M⁻¹ s⁻¹ with mouse serum albumin [5]; 106000 M⁻¹ s⁻¹ with rat serum albumin [7]. Also, the results for the kon in the test with mouse serum albumin [8], in the test with human serum albumin [9] and with cynomolgus serum albumin [10] were 146000 M⁻¹ s⁻¹, 323000 M⁻¹ s⁻¹ and 334000 M⁻¹ s⁻¹, respectively. The “fold improvement of affinity of the STR graft over the CDR graft 23-13-A01-sc01” value with human serum albumin [6] is approximately 3 fold.

B2: 19-01-H04-sc02 (scFv, V domains shown)
VH: EVQLVESGGGLVQPGGSLRLSCAASGFSLSSNAMGWVRQAPGKGLEYIGIISVGGFTYYASWAKGRFTISRDNSKNTVYLQMNSLRAEDTATYFCARDRHGGDSSGAFYLWGQGTLVTVSS
VL: DIQMTQSPSSLSASVGDRVTITCQSSESVYSNNQLSWYQQKPGQPPKLLIYDASDLASGVPSRFSGSGSGTDFTLTISSLQPEDFATYYCAGGFSSSSDTAFGGGTKLTVLG
notes: also called clone 19-01-H04 STR graft; humanized scFv
Consider B2, for which the Kd with human serum albumin [1] was determined as 0.684 nM; in the test with cynomolgus serum albumin [2], 0.387 nM; in [3] it was 0.674 nM; with human serum albumin [9], 1.07 nM; with cynomolgus serum albumin [10], 0.711 nM. The koff turned out to be 0.000308 s⁻¹ with human serum albumin [1]; 0.000231 s⁻¹ with cynomolgus serum albumin [2]; 0.0026 s⁻¹ in test [3]; 0.000411 s⁻¹ in the test with human serum albumin [9]; 0.000302 s⁻¹ in the test with cynomolgus serum albumin [10]. Also, the kon with human serum albumin [1] worked out at 450000 M⁻¹ s⁻¹; in the test with cynomolgus serum albumin [2], 598000 M⁻¹ s⁻¹; in [3] it was 3.86e+06 M⁻¹ s⁻¹; with human serum albumin [9], 384000 M⁻¹ s⁻¹; with cynomolgus serum albumin [10] it was 424000 M⁻¹ s⁻¹. Besides, the binding result in the test with rat serum albumin [11] and in the test with mouse serum albumin [12] was “no binding” throughout. Moreover, the “fold improvement of affinity of the STR graft over the CDR graft 19-01-H04-sc01” value with human serum albumin [13] and in the test with cynomolgus serum albumin [14] was 20 to 300 fold throughout.
